These results are taken from the supplement of paper PMC10724198.

± gives the standard deviation of the averaged measurements.

The test system of series [1] is Saccharomyces cerevisiae. Put plainly: protein stability index of tFT-peptide fusion (C-terminal peptide) (PSI (0-1 scale)); higher = more stable (slower turnover). As to the method: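 MPS profiling in S. cerevisiae of the tFT-X12 degron library: putative degron peptides plus stable controls, 12 aa, fused to the C-terminus of a sfGFP-mCherry timer. Cells are FACS-sorted into 8 mCherry/sfGFP bins and deep-sequenced. PSI runs from 0 (unstable) to 1 (stable). Backgrounds are wild type, das1Δ and doa10Δ at 30 °C, and wild type, das1Δ, cdc34-1 and cdc53-1 at 37 °C; 2-3 technical replicates each.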

Series [2] concerns Saccharomyces cerevisiae. The series is described as above. The settings on record: genetic background: wild type; temperature: 30 C.
[3] abbreviates: genetic background: cdc34-1, temperature: 37 C.
Setting [4] is: genetic background: cdc53-1, temperature: 37 C.
The mark [5] stands for this setting: genetic background: das1 deletion, temperature: 30 C.
Setting [6] is: genetic background: das1 deletion, temperature: 37 C.
The mark [7] stands for this setting: genetic background: doa10 deletion, temperature: 30 C.
Setting [8] is: genetic background: wild type, temperature: 30 C.
Where [9] appears, read: genetic background: wild type, temperature: 37 C.
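Note: PSI is a weighted mean of sequencing reads over stability bins, variants kept only with over 10 reads, mCherry proximal and sfGFP distal, peptide attached via GGGS linker.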

WFLVFLRVGDGP: the protein stability index came to 0.539 ± 0.01 in series [1] (setting [3]); 0.566 ± 0.0072 in series [1] (setting [4]); 0.362 ± 0.027 in series [1] (setting [5]); 0.6 ± 0.0068 in series [1] (setting [6]); 0.353 ± 0.039 in series [1] (setting [7]); 0.378 ± 0.023 in series [1] (setting [8]). For the same sequence, the protein stability index in series [1] (setting [9]) was 0.545 ± 0.016; in series [2], 0.474 ± 0.01.
WKNIHGVFVFVM: the protein stability index came out at 0.5472 ± 0.001 in series [1] (setting [3]); 0.48 ± 0.014 in series [1] (setting [4]); 0.389 ± 0.028 in series [1] (setting [5]); 0.5696 ± 0.0012 in series [1] (setting [6]); 0.25 ± 0.0047 in series [1] (setting [7]); 0.284 ± 0.03 in series [1] (setting [8]). Moreover, the results for the protein stability index in series [1] (setting [9]) and in series [2] were 0.445 ± 0.0072 and 0.403 ± 0.012, respectively.
As to WLCLGLVVGLFL, the protein stability index in series [1] (setting [3]) stood at 0.44 ± 0.0069; in series [1] (setting [4]), 0.488 ± 0.013; in series [1] (setting [5]), 0.383 ± 0.029; in series [1] (setting [6]) it was 0.459 ± 0.0058; in series [1] (setting [7]) it was 0.339 ± 0.031; in series [1] (setting [8]), 0.362 ± 0.017. Besides, the protein stability index in series [1] (setting [9]) amounted to 0.47 ± 0.015; in series [2] it was 0.433 ± 0.041.
Regarding WLCWVVWFPGLF, the protein stability index in series [1] (setting [3]) is 0.395 ± 0.035; in series [1] (setting [4]), 0.509 ± 0.028; in series [1] (setting [5]) it was 0.369 ± 0.032; in series [1] (setting [6]), 0.541 ± 0.012; in series [1] (setting [7]) it was 0.1615 ± 0.00068; in series [1] (setting [8]) it was 0.171 ± 0.012. Besides, the protein stability index worked out at 0.297 ± 0.015 in series [1] (setting [9]) and 0.244 ± 0.035 in series [2].
Consider WLFFVVLPVKAF, for which the protein stability index in series [1] (setting [3]) turned out to be 0.0666 ± 0.0023; in series [1] (setting [4]), 0.146 ± 0.02; in series [1] (setting [5]) it was 0.178 ± 0.038; in series [1] (setting [6]) it was 0.28 ± 0.016; in series [1] (setting [7]), 0.104 ± 0.023; in series [1] (setting [8]), 0.131 ± 0.026. The protein stability index stood at 0.154 ± 0.001 in series [1] (setting [9]) and 0.231 ± 0.0071 in series [2].
For the sequence WLLSFLRFLVLR, the protein stability index was determined as 0.124 ± 0.015 in series [1] (setting [3]); 0.0923 ± 0.027 in series [1] (setting [4]); 0.322 ± 0.045 in series [1] (setting [5]); 0.308 ± 0.02 in series [1] (setting [6]); 0.8 ± 0.014 in series [1] (setting [7]); 0.298 ± 0.026 in series [1] (setting [8]). Besides, the protein stability index in series [1] (setting [9]) was found to be 0.32 ± 0.021; in series [2], 0.393 ± 0.029.
For WLVCAGWVVLSC, the protein stability index turned out to be 0.153 ± 0.0026 in series [1] (setting [3]); 0.2052 ± 0.00049 in series [1] (setting [4]); 0.187 ± 0.023 in series [1] (setting [5]); 0.2772 ± 0.0018 in series [1] (setting [6]); 0.175 ± 0.0096 in series [1] (setting [7]); 0.175 ± 0.026 in series [1] (setting [8]). In addition, the protein stability index turned out to be 0.222 ± 0.016 in series [1] (setting [9]) and 0.265 ± 0.033 in series [2].
WLYPVFKISYCV: the protein stability index in series [1] (setting [3]) is 0.492 ± 0.0089; in series [1] (setting [4]), 0.533 ± 0.024; in series [1] (setting [5]) it was 0.357 ± 0.032; in series [1] (setting [6]) it was 0.5131 ± 0.0049; in series [1] (setting [7]) it was 0.282 ± 0.0049; in series [1] (setting [8]), 0.33 ± 0.021. The results for the protein stability index in series [1] (setting [9]) and in series [2] were 0.464 ± 0.017 and 0.381 ± 0.014, respectively.
Regarding WNIVKHREDMLS, the protein stability index in series [1] (setting [3]) was found to be 0.685 ± 0.013; in series [1] (setting [4]), 0.768 ± 0.015; in series [1] (setting [5]) it was 0.638 ± 0.021; in series [1] (setting [6]), 0.7359 ± 0.0046; in series [1] (setting [7]), 0.63 ± 0.033; in series [1] (setting [8]), 0.621 ± 0.027. The protein stability index in series [1] (setting [9]) came to 0.7213 ± 0.0053; in series [2], 0.524 ± 0.14.
As for WSLPPLLSPLYF, the protein stability index in series [1] (setting [3]) was found to be 0.717 ± 0.035; in series [1] (setting [4]), 0.753 ± 0.019; in series [1] (setting [5]), 0.67 ± 0.016; in series [1] (setting [6]) it was 0.758 ± 0.02; in series [1] (setting [7]), 0.676 ± 0.024; in series [1] (setting [8]), 0.672 ± 0.012. In addition, the protein stability index is 0.7198 ± 0.0018 in series [1] (setting [9]) and 0.667 ± 0.34 in series [2].
